Data: patent US20230129258A1, “HETEROTANDEM BICYCLIC PEPTIDE COMPLEXES” (BicycleTx Limited, priority 2019, published 2023)
One block for each binder: values may come before it. Starred links: 1 amine or outer side, 2 acyl side, 3 side chain; linkers in the order of their positions; H or OH if unused. Positions of bridges follow the written chain, without caps; N, C: chain ends. Non-standard residues stand in square brackets, D forms with d. Chains are numbered I, II in the order given. No end group written: not given here. *: point of attachment. TATA = O=C(CC[*:1])N1CN(C(=O)CC[*:2])CN(C(=O)CC[*:3])C1; Dip = N[C@H](C(=O)O)C(c1ccccc1)c1ccccc1; d1Nal = N[C@H](Cc1cccc2ccccc12)C(=O)O; Hyp = O=C(O)[C@@H]1C[C@@H](O)CN1; hArg = N=C(N)NCCCC[C@H](N)C(=O)O; tBuAla = CC(C)(C)C[C@H](N)C(=O)O; Cba = N[C@@H](CC1CCC1)C(=O)O; dK(PYA) = not defined here; NMeA = CN[C@@H](C)C(=O)O; Nle = CCCC[C@H](N)C(=O)O; Pent4ynoyl = C#CCCC(=O)*; Mpa = O=C(O)CCS

Target: CD137 on Jurkat reporter cells (Promega kit CS196005) (UniProt Q07011)
Assay: cell-based or functional assay

Chain of CD137 on Jurkat reporter cells (Promega kit CS196005) (Q07011 24-255 limits assumed): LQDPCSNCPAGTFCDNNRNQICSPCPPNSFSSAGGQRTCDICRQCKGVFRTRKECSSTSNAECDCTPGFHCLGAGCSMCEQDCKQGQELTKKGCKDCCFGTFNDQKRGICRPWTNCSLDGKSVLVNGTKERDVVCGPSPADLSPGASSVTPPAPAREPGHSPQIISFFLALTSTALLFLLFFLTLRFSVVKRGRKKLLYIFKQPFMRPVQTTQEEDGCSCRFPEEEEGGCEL

B1: BCY13139 (peptide)
peptide 1: A[hArg]DC[Hyp]LVNPLCLHP[dD]W[hArg]C
peptide 2: [Mpa][tBuAla]EE[dK](Pent4ynoyl)PYCFADPY[Nle]C
modifications: linker I:4-I:11-I:18, II:1-II:8-II:15 via TATA; not fully specified (N-terminus); also: linker joins chain 1 to two chain 2 copies via PYA triazoles
EC50 (nM), PC3 co-culture: 0.16 nM
Emax (fold induction over background), PC3 (fold over background): 43.8

B2: BCY12977 (peptide)
peptide 1: A[hArg]DC[Hyp]LVNPLCLHP[dE]W[hArg]C
peptide 2: Ac-C[tBuAla]PE[dK(PYA)]PYCFADPY[Nle]CA
modifications: linker I:4-I:11-I:18, II:1-II:8-II:15 via TATA; linker II:N-II:5 via N‑(acid-PEG3)‑N‑bis(PEG3-azide); reading uncertain; also: two CD137 bicycles per complex (EphA2:CD137 1:2)
EC50 (nM), PC3 co-culture: 0.08 nM
Emax (fold induction over background), PC3 (fold over background): 67.2

B7: BCY12973 (peptide)
peptide 1: Ac-A[hArg]DC[Hyp]LVNPLCLHP[dD]W[hArg]CK
peptide 2: Ac-C[tBuAla]PE[dK(PYA)]PYCFADPY[Nle]CA
modifications: linker I:4-I:11-I:18, II:1-II:8-II:15 via TATA; linker I:19-II:5 via N‑(acid-PEG3)‑N‑bis(PEG3-azide); reading uncertain; also: two CD137 bicycles per complex (EphA2:CD137 1:2)
EC50 (nM), PC3 co-culture: 0.16 nM
Emax (fold induction over background), PC3 (fold over background): 48.6

B8: BCY13047 (peptide)
peptide 1: A[hArg]DC[Hyp]LVNPLCL[Dip]P[dD]WTC
peptide 2: Ac-C[tBuAla]PE[dK(PYA)]PYCFADPY[Nle]CA
modifications: linker I:4-I:11-I:18, II:1-II:8-II:15 via TATA; not fully specified (N-terminus, bridges); reading uncertain; also: two CD137 bicycles per complex (EphA2:CD137 1:2)
EC50 (nM), PC3 co-culture: 0.07 nM
Emax (fold induction over background), PC3 (fold over background): 46.4

B9: BCY13054 (peptide)
peptide 1: A[hArg]DC[Hyp]LVNPLCL[Dip]P[dD]W[hArg]C
peptide 2: Ac-C[tBuAla]PE[dK](Pent4ynoyl)PYCFADPY[Nle]CA
modifications: linker I:4-I:11-I:18, II:1-II:8-II:15 via TATA; not fully specified (N-terminus, bridges); also: linker joins chain 1 to two chain 2 copies via PYA triazoles
EC50 (nM), PC3 co-culture: 0.07 nM
Emax (fold induction over background), PC3 (fold over background): 36.5

B11: BCY12975 (peptide)
peptide 1: Ac-A[hArg]DC[Hyp]KVNPLCLHP[dD]W[hArg]C
peptide 2: Ac-C[tBuAla]PE[dK(PYA)]PYCFADPY[Nle]CA
modifications: linker I:4-I:11-I:18, II:1-II:8-II:15 via TATA; linker I:6-II:5 via N‑(acid-PEG3)‑N‑bis(PEG3-azide); reading uncertain; also: two CD137 bicycles per complex (EphA2:CD137 1:2)
EC50 (nM), PC3 co-culture: 0.16 nM
Emax (fold induction over background), PC3 (fold over background): 68.8

B12: BCY13138 (peptide)
peptide 1: A[hArg]DC[Hyp]LVNPLCLEP[dD]WTC
peptide 2: [Mpa][tBuAla]PE[dK(PYA)]PYCFADPY[Nle]C
modifications: linker I:4-I:11-I:18, II:1-II:8-II:15 via TATA (inferred); not fully specified (N-terminus); reading uncertain; also: linker joins chain 1 to two chain 2 copies via PYA triazoles
EC50 (nM), PC3 co-culture: 0.17 nM
Emax (fold induction over background), PC3 (fold over background): 32.6

B13: BCY13051 (peptide)
peptide 1: A[hArg]DC[Hyp][Cba]VNPLCLEP[dD]WTC
peptide 2: Ac-C[tBuAla]PE[dK](Pent4ynoyl)PYCFADPY[Nle]CA
modifications: linker I:4-I:11-I:18, II:1-II:8-II:15 via TATA; not fully specified (N-terminus, bridges); also: linker joins chain 1 to two chain 2 copies via PYA triazoles
EC50 (nM), PC3 co-culture: 0.21 nM
Emax (fold induction over background), PC3 (fold over background): 37

B14: BCY13052 (peptide)
peptide 1: [dA][hArg]DC[Hyp][Cba]VNPLCLEP[dD]WTC[dA]
peptide 2: Ac-C[tBuAla]PE[dK](Pent4ynoyl)PYCFADPY[Nle]CA
modifications: linker I:4-I:11-I:18, II:1-II:8-II:15 via TATA (inferred); not fully specified (N-terminus); also: chain 2: linker at dLys(PYA)4 (place not given here by letters), linker N-(acid-PEG3)-N-bis(PEG3-azide) joins N-terminus of chain 1 to dLys(PYA) of chain 2
EC50 (nM), PC3 co-culture: 0.21 nM
Emax (fold induction over background), PC3 (fold over background): 32.9

B15: BCY12979 (peptide)
peptide 1: A[hArg]DC[Hyp]LVNPLCLHP[dD]W[hArg]C
peptide 2: Ac-C[tBuAla]PE[dK(PYA)]PYCFADPY[Nle]CA
modifications: linker I:4-I:11-I:18, II:1-II:8-II:15 via TATA; not fully specified (bridges); reading uncertain; also: two CD137 bicycles per complex (EphA2:CD137 1:2)
EC50 (nM), PC3 co-culture: 0.08 nM
Emax (fold induction over background), PC3 (fold over background): 71.6

B16: BCY12976 (peptide)
peptide 1: Ac-A[hArg]DC[Hyp]LVNPLCKHP[dD]W[hArg]C
peptide 2: Ac-C[tBuAla]PE[dK(PYA)]PYCFADPY[Nle]CA
modifications: linker I:4-I:11-I:18, II:1-II:8-II:15 via TATA; linker I:12-II:5 via N‑(acid-PEG3)‑N‑bis(PEG3-azide); reading uncertain; also: two CD137 bicycles per complex (EphA2:CD137 1:2)
EC50 (nM), PC3 co-culture: 0.18 nM
Emax (fold induction over background), PC3 (fold over background): 73.2

B18: BCY13050 (peptide)
peptide 1: A[hArg]DC[Hyp][Cba]VNPLCLHP[dD]W[hArg]C
peptide 2: Ac-C[tBuAla]PE[dK](Pent4ynoyl)PYCFADPY[Nle]CA
modifications: linker I:4-I:11-I:18, II:1-II:8-II:15 via TATA; not fully specified (N-terminus, bridges); also: linker joins chain 1 to two chain 2 copies via PYA triazoles
EC50 (nM), PC3 co-culture: 0.09 nM
Emax (fold induction over background), PC3 (fold over background): 42.5

Results, then the binder that gave them:

Fold Improvement over BCY9173, EC50, PC3: 7.21 fold
Fold Improvement over Emax (BCY9173), PC3: 1.62 fold
B3: BCY14334 (peptide)
peptide 1: A[hArg]DC[Hyp]LVNPLCLKP[dD]W[hArg]C
peptide 2: Ac-C[tBuAla]PE[dK](Pent4ynoyl)PYCFADPY[Nle]CA
modifications: linker I:4-I:11-I:18 via TATA; linker II:1-II:8-II:15 via TATA (inferred); not fully specified (some residues); also: N-(acid-PEG3)-N-bis(PEG3-azide) linker at chain 1 N-terminus, joined to dLys(PYA)4 of two BCY8928 chains (1:2 complex)

Fold Improvement over BCY9173, EC50, PC3: 7.14 fold
Fold Improvement over Emax (BCY9173), PC3: 0.94 fold
B4: BCY14335 (peptide)
peptide 1: {Palmitoyl‑Glu‑LysN3-Pent4ynoyl}-A[hArg]DC[Hyp]LVNPLCLKP[dD]W[hArg]C
peptide 2: Ac-C[tBuAla]PE[dK](Pent4ynoyl)PYCFADPY[Nle]CA
modifications: linker I:4-I:11-I:18, II:1-II:8-II:15 via TATA (inferred); not fully specified; also: 1:2 complex: chain 1 Lys ('Lys 8') joined to dLys(PYA)5 of two chain 2 copies via N-(acid-PEG3)-N-bis(PEG3-azide) linker

EC50 (nM), PC3 co-culture: 0.08 nM
Emax (fold induction over background), PC3 (fold over background): 47.5
B5: BCY13275 (peptide)
peptide 1: [NMeA][hArg]DC[Hyp]LVNPLCLHP[dD]W[hArg]C
peptide 2: Ac-C[tBuAla]PE[dK](Pent4ynoyl)PYCFADPY[Nle]CA
modifications: linker I:4-I:11-I:18, II:1-II:8-II:15 via TATA; not fully specified (N-terminus, bridges); also: linker joins chain 1 to two chain 2 copies via PYA triazoles

EC50 (nM), PC3 co-culture: 0.12 nM
Emax (fold induction over background), PC3 (fold over background): 46.7
B6: BCY13140 (peptide)
peptide 1: A[hArg]DC[Hyp]LVNPLCLEP[dD]WTC
peptide 2: [Mpa][tBuAla]EE[dK](Pent4ynoyl)PYCFADPY[Nle]C
modifications: linker I:4-I:11-I:18, II:1-II:8-II:15 via TATA; not fully specified (N-terminus); also: linker joins chain 1 to two chain 2 copies via PYA triazoles

EC50 (nM), PC3 co-culture: 0.1 nM
Emax (fold induction over background), PC3 (fold over background): 42.5
B10: BCY13270 (peptide)
peptide 1: A[hArg]DC[Hyp]LVNPLCLHP[d1Nal]W[hArg]C
peptide 2: Ac-C[tBuAla]PE[dK](Pent4ynoyl)PYCFADPY[Nle]CA
modifications: linker I:4-I:11-I:18, II:1-II:8-II:15 via TATA; not fully specified (N-terminus, bridges); also: linker joins chain 1 to two chain 2 copies via PYA triazoles

EC50 (nM), PC3 co-culture: 0.1 nM
Emax (fold induction over background), PC3 (fold over background): 50.5
B17: BCY13276 (peptide)
peptide 1: [NMeA][hArg]DC[Hyp]LVNPLCLEP[dD]WTC
peptide 2: Ac-C[tBuAla]PE[dK](Pent4ynoyl)PYCFADPY[Nle]CA
modifications: linker I:4-I:11-I:18, II:1-II:8-II:15 via TATA; not fully specified (N-terminus, bridges); also: linker joins chain 1 to two chain 2 copies via PYA triazoles
